Experimental data published in patent US20050203009A1, “VPAC1 selective antagonists and their pharmacological methods of use” (Bayer Pharmaceuticals Corporation, priority 2004, published 2005).
Square brackets hold non-standard residues; d marks the D form. Primed or numbered codes have the meaning given here. Side chains are listed from the residue outwards. Ends that are not written are not given here. Peptide text beside a SMILES is read from it. maleimide″ = maleimide group of the 22 kD methoxy-PEG-maleimide reagent, which reacts with the Cys sulfhydryl to form a stable thioether linkage; maleimide = methoxy-PEG-maleimide (thioether to cysteine thiol)

Tests used:
VPAC2 = molecular target: T1, VPAC2 (Homo sapiens, UniProt P41587); assay: Receptor competition assay, 125I-PACAP27 binding to CHO membranes (VPAC2); settings: membranes of VPAC2-transfected CHO cells, 0.1 nM 125I-PACAP27
T1 construct: expressed in transfected cells; membranes
T1 sequence (P41587 24-438): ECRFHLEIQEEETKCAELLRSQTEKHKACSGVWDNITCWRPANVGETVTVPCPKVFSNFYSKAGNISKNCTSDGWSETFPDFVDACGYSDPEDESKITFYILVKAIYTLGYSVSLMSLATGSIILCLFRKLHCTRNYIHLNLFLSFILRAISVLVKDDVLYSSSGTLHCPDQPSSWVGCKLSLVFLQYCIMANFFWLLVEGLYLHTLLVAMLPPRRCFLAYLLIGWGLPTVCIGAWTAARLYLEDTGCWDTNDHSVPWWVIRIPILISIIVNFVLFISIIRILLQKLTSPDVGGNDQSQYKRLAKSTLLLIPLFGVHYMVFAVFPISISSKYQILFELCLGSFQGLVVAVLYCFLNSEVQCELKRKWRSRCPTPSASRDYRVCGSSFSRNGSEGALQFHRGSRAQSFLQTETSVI
Description: In order to test for selective binding of the VPAC1 selective antagonist to the VPAC1, both the VPAC1 and VPAC2 receptors were expressed in CHO cells using the following procedure. The human VPAC1 and the VPAC2 were cloned via RT PCR from human heart mRNA and human testis mRNA, respectively, using TaqPlus Precision PCR System (Stratagene). The PCR products were subcloned into pCDNA3.1 (Invitrogen) for in vitro translation and mammalian expression. The cell line chosen for expression was the CHOcreluc line already expressing a cAMP response element-luciferase reporter along with Gα16. These cells were grown under hygromycin selection at 0.4 mg/ml. On the day of transfection, CHOcreluc cells at 70% confluency were washed with serum free media and transfected using Lipofectamine Plus Reagent (Gibco BRL). Stable pools were selected in the presence of 0.4 mg/ml hygromycin and 1.5 mg/ml G418. Once viably-frozen stocks had been made from these pools they were cloned by limiting dilution.
The capacity of the VPAC1 selective antagonist to selectively bind the VPAC1 as opposed to the VPAC2 receptor was measured using membranes prepared from CHO cells transfected with both receptors as described in Example 3. […] The filters were washed with cold 25 mM NaPO4 containing 1% BSA and counted in a gamma counter. […]

[1] = system: NCI-H727 human non-small cell lung carcinoma cell line; assay: NCI-H727 cancer cell proliferation assay (Alamar Blue); format: cell-based
Experimental: NCI-H727 is an adherent human non-small cell lung carcinoma cell line. The cells are grown in RPMI-1640 plus 2 mM L-Glutamine and 10% FBS and cells subcultured in the following manner: Medium was removed and cells were rinsed once in PBS solution. To harvest the cells 10 mls PBS containing 2 ml of trypsin-EDTA solution was added to a 75 ml flask. The flask was incubated at 37° C. until the cells detached. Fresh culture medium was added, aspirated and dispensed into new culture flasks. A split ratio of 1:3 to 1:4 was carried out 2 times per week. The 96-well assay was performed as follows: Day 1) Cells were seeded at 7000 cells/well in 0.2 ml complete medium/well and incubated overnight at 37° C. Day 2) Complete medium was aspirated from wells and 200 ul/well PBS was added and aspirated. Cells were then treated with peptides using the assay medium RPMI-1640 plus 2 mM L-Glutamine and 0.2% FBS at a final volume of 200 ul/well and incubated for 2 days. Day 4) Alamar Blue (10% of total volume) was added to wells and absorbance (530/590 nm) read at 0, 4, 6, 8, 10 and 24 hours.

human VPAC1 [2] = molecular target: T2, human VPAC1 (human, UniProt P32241 31-457); assay: cell-based or functional assay
T2 sequence (looked up): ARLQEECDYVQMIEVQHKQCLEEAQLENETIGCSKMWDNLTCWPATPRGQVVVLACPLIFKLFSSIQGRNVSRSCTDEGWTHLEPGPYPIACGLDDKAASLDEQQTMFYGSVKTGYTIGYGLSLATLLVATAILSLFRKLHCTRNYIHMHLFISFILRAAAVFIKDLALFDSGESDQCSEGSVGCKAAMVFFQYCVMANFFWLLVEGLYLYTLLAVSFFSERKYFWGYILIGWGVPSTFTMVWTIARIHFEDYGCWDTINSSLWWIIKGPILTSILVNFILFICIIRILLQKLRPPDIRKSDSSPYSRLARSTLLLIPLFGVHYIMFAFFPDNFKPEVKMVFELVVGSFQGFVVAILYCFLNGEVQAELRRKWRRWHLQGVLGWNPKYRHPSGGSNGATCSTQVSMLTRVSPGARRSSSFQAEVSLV

human VPAC1 [3] = molecular target: T2, human VPAC1; assay: competition with 125I-PACAP27 on membranes of CHO cells expressing human VPAC1
Experimental: (§1) Cells were washed with phosphate buffered saline (PBS), scraped in homogenization buffer (10 mM Tris pH 7.4, 2 mM EDTA, 5 mM MgCl2, 1 mM PMSF), followed by centrifugation at 4000 g for 10 minutes at 4° C. The cell pellet was resuspended in homogenization buffer and homogenized using a Polytron. Membranes were collected by centrifugation at 30,000 g for 30 minutes at 4° C., resuspended in homogenization buffer, and stored at −80° C. until use. […] After incubating at 37° C. for 20 minutes, bound ligand was collected on GF/C filters pretreated with 0.1% polyethylenimine. The filters were washed with cold 25 mM NaPO4 containing 1% BSA and counted in a gamma counter. All reagents were purchased from Sigma unless otherwise indicated.

human VPAC1 [4] = molecular target: T2, human VPAC1; assay: ratio of the VPAC2 and VPAC1 IC50 values, 125I-PACAP27 competition on CHO membranes
Experimental: as §1

“R2P3-PEG22kD: R2P3 (SEQ ID NO 4) PEGylated at the C-terminal cysteine with 22 kD methoxy-PEG-maleimide (Ac-H[dF]DAVFTNSYRKVLKRLSARKLLQDILC([maleimide″-methoxy‑PEG 22 kD]); not fully specified (C-terminus); printed as HfDAVFTNSYRKVLKRLSARKLLQDILC*; also: C-terminal * undefined) [Peptide R2P3-PEG22kD]” was tested, and the IC50 (VPAC2) was greater than 10000 nM.

With “R2P11-PEG22kD: R2P11 (SEQ ID NO 5) PEGylated at the C-terminal cysteine with 22 kD methoxy-PEG-maleimide (Ac-H[dF]DAVFTNSYRKVLKRLSVRKLLQDILC([maleimide-methoxy‑PEG 22 kD]); not fully specified (C-terminus); printed as HfDAVFTNSYRKVLKRLSVRKLLQDILC*; also: C-terminal * undefined)” the IC50 (VPAC2) was greater than 10000 nM.

`CC[C@H](C)[C@H](NC(=O)[C@H](CO)NC(=O)[C@H](CCC(N)=O)NC(=O)[C@H](CC(C)C)NC(=O)[C@H](CC(C)C)NC(=O)[C@H](CCCCN)NC(=O)[C@H](CCCNC(=N)N)NC(=O)[C@H](C)NC(=O)[C@H](CO)NC(=O)[C@H](CC(C)C)NC(=O)[C@H](CCCNC(=N)N)NC(=O)[C@H](CCCCN)NC(=O)[C@H](CC(C)C)NC(=O)[C@@H](NC(=O)[C@H](CCCCN)NC(=O)[C@H](CCCNC(=N)N)NC(=O)[C@H](Cc1ccc(O)cc1)NC(=O)[C@H](CO)NC(=O)[C@H](CC(N)=O)NC(=O)[C@@H](NC(=O)[C@H](Cc1ccccc1)NC(=O)[C@@H](NC(=O)[C@H](C)NC(=O)[C@H](CC(=O)O)NC(=O)[C@@H](Cc1ccccc1)NC(=O)[C@H](Cc1c[nH]cn1)NC(C)=O)C(C)C)[C@@H](C)O)C(C)C)C(=O)N[C@@H](CC(C)C)C(N)=O` [Peptide R2P16] (HELM PEPTIDE1{[ac].H.[dF].D.A.V.F.T.N.S.Y.R.K.V.L.K.R.L.S.A.R.K.L.L.Q.S.I.L.[am]}$$$$V2.0) was tested, and the “IC50 relative to reference compound R2P2” value [1] was “three times lower”.

B1: R2P16 (peptide)
peptide: HFDAVFTNSYRKVLKRLSARKLLQSIL
HELM: PEPTIDE1{[ac].H.[dF].D.A.V.F.T.N.S.Y.R.K.V.L.K.R.L.S.A.R.K.L.L.Q.S.I.L.[am]}$$$$V2.0
SMILES: CC[C@H](C)[C@H](NC(=O)[C@H](CO)NC(=O)[C@H](CCC(N)=O)NC(=O)[C@H](CC(C)C)NC(=O)[C@H](CC(C)C)NC(=O)[C@H](CCCCN)NC(=O)[C@H](CCCNC(=N)N)NC(=O)[C@H](C)NC(=O)[C@H](CO)NC(=O)[C@H](CC(C)C)NC(=O)[C@H](CCCNC(=N)N)NC(=O)[C@H](CCCCN)NC(=O)[C@H](CC(C)C)NC(=O)[C@@H](NC(=O)[C@H](CCCCN)NC(=O)[C@H](CCCNC(=N)N)NC(=O)[C@H](Cc1ccc(O)cc1)NC(=O)[C@H](CO)NC(=O)[C@H](CC(N)=O)NC(=O)[C@@H](NC(=O)[C@H](Cc1ccccc1)NC(=O)[C@@H](NC(=O)[C@H](C)NC(=O)[C@H](CC(=O)O)NC(=O)[C@@H](Cc1ccccc1)NC(=O)[C@H](Cc1c[nH]cn1)NC(C)=O)C(C)C)[C@@H](C)O)C(C)C)C(=O)N[C@@H](CC(C)C)C(N)=O
notes: Synthetic VIP/GHRH hybrid peptide, not PEGylated; also called Peptide R2P16
For B1, the “CHO VPAC1 cAMP inhibition (IC50 against 1 nM VIP)” value (“CHO VPAC1 cAMP inhibition” for short) (human VPAC1 [2]) was 50 nM, the IC50 (human VPAC1 [3]) was 17 nM and the “VPAC2/1 Selectivity” value (human VPAC1 [4]) was greater than 700 fold.

B2: R2P3-PEG22kD (peptide)
peptide: Ac-H[dF]DAVFTNSYRKVLKRLSARKLLQDILC([maleimide-methoxy‑PEG 22 kD])-NH2
notes: also called PEGylated R2P3
In the case of B2, the “CHO VPAC1 cAMP inhibition” value (human VPAC1 [2]) is reported as 181 nM, the IC50 (human VPAC1 [3]) is reported as 21 nM and the “VPAC2/1 Selectivity” value (human VPAC1 [4]) is reported as greater than 480 fold.

B3: R2P11-PEG22kD (peptide)
peptide: Ac-H[dF]DAVFTNSYRKVLKRLSVRKLLQDILC([maleimide-methoxy‑PEG 22 kD])-NH2
notes: also called PEGylated R2P11
For B3, the “CHO VPAC1 cAMP inhibition” value (human VPAC1 [2]) was 101 nM, the IC50 (human VPAC1 [3]) was 49 nM and the “VPAC2/1 Selectivity” value (human VPAC1 [4]) was greater than 200 fold.
